# Results reported in patent publication US20200181262A1 (published 2020).
# Residue numbers refer to the chain shown, from its start. Values joined by “and” are separate entries in the source; they are usually repeats but may differ in a detail not shown here. Equal entries are not always repeated.
# B1: G9VH1_Vκ2 antibody (antibody, V domains shown)
# VH: QVQLVQSGAELKKPGASVKLSCKASGYTFTSYGISWVKQATGQGLEWIGEIYPRSGNTYYNEKFKGRATLTADKSTSTAYMELRSLRSEDSAVYFCARSTTVSPPRVWGTGTTVTVSS
# VL: DIQMTQSPSSLSASVGDRVTITCKASDHINNWLAWYQQKPGQAPRLLISGATSLETGVPSRFSGSGTGKDYTLTISSLQPEDFATYYCQQYWSTPYTFGGGTKVEIK
# notes: also called G9Vκ2
# B2: H3VH1_Vκ2 antibody (anti-FcRn mAb H3Vκ2) (antibody, V domains shown)
# VH: B1 VH with S103R, R106G, V107I
# VL: B1 VL
# notes: also called H3Vk2; H3VK2
# B3: H1VH1_Vκ2 antibody (antibody, IgG4, V domains shown)
# VH: B1 VH with R106P, V107L
# VL: B1 VL
# B4: VH1_A8/Vκ2_E8 IgG4 (antibody, V domains shown)
# VH: B1 VH with R87K, R106A, V107H
# VL: B1 VL with P80T, Q89H, W92Y
# notes: bivalent IgG4, kappa; also called A8VH1E8Vκ2; A8/E8VK2
# B5: VH1_G4/Vκ2_E8 IgG4 (antibody, V domains shown)
# VH: B1 VH with R106H, V107L
# VL: B1 VL with P80T, Q89H, W92Y
# notes: bivalent IgG4, kappa; also called G4VH1E8Vκ2
# B6: VH1_G9/Vκ2_E8 IgG4 (antibody, V domains shown)
# VH: B1 VH
# VL: B1 VL with P80T, Q89H, W92Y
# notes: bivalent IgG4, kappa; also called G9VH1_E8Vκ2; G9VH1E8Vκ2
# B7: H1 VH1 scFv with humanized parental Vκ1 (scFv)
# scFv: QVQLVQSGAELKKPGASVKLSCKASGYTFTSYGISWVKQATGQGLEWIGEIYPRSGNTYYNEKFKGRATLTADKSTSTAYMELRSLRSEDSAVYFCARSTTVSPPPLWGTGTTVTVSSGGGGSGGGGSGGGGSDIQMTQSPSYLSASVGDRVTITCKASDHINNWLAWYQQKPGQAPRLLISGATSLETGVPSRFSGSGTGKDYTLTISSLQTEDFATYYCQQYWSTPYTFGGGTKVEIK
# notes: from bacterial periplasmic extracts
# B8: A4 VH1 scFv with humanized parental Vκ1 (scFv)
# scFv: B7 scFv with P105A, P106D, L107F, W108R
# B9: A7 VH1 scFv with humanized parental Vκ1 (scFv)
# scFv: B7 scFv with L107I
# B10: C4 VH1 scFv with humanized parental Vκ1 (scFv)
# scFv: B7 scFv with S103A, P106R
# B11: E4 VH1 scFv with humanized parental Vκ1 (scFv)
# scFv: B7 scFv with S103H, P105D, P106H, L107N
# B12: E7 VH1 scFv with humanized parental Vκ1 (scFv)
# scFv: B7 scFv with L11P, P106H
# B13: F7 VH1 scFv with humanized parental Vκ1 (scFv)
# scFv: B7 scFv with S103A
# B14: G4 VH1 scFv with humanized parental Vκ1 (scFv)
# scFv: B7 scFv with P106H
# B15: G7 VH1 scFv with humanized parental Vκ1 (scFv)
# scFv: B7 scFv with S103A, P106G, L107H
# B16: G9 VH1 scFv with humanized parental Vκ1 (scFv)
# scFv: B7 scFv with P106R, L107V
# B17: H2 VH1 scFv with humanized parental Vκ1 (scFv)
# scFv: B7 scFv with S103A, P106A, L107H
# B18: H4 VH1 scFv with humanized parental Vκ1 (scFv)
# scFv: B7 scFv with P104A, P106G, L107V
# Legend:
# [1] = target: T1, FcRn (analyte of the BIACORE studies of Tables 9-11, tables titled anti-human FcRn mAbs) (human, UniProt P55899 24-290; P61769 21-119); experiment: SPR, antibody captured on protein A, FcRn 50-0.02 nM, 1:1 model
# T1 construct: also called analyte (FcRn)
# T1 sequence (P55899 24-290 limits assumed, chain 1 of 2): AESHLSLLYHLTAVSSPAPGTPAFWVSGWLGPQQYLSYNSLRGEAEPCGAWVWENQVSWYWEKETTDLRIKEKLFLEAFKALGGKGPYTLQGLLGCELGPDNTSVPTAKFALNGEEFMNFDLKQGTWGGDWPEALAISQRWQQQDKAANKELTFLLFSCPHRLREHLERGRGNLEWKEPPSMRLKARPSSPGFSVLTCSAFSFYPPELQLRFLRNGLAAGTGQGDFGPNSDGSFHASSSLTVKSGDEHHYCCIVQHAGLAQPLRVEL
# T1 sequence (P61769 21-119 limits assumed, chain 2 of 2): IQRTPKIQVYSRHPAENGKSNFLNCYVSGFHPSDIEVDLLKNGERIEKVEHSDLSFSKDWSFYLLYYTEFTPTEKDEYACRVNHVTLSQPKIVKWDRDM
# Experimental: For kinetic analysis, a 2-fold dilution range was selected from 50-0.02 nM FcRn. The association phase of FcRn analyte was monitored for 450 seconds, and dissociation was measured for 1500 seconds, at 40 μl/min. Fc1 was a reference channel and was subtracted from other flow cells to correct for non-specific binding. Kinetic values are based on a 1:1 binding model (Table 11).
# [2] = target: T2, monomeric His-tagged human FcRn (hFcRn) (JTA) (human, UniProt P55899 24-290; P61769 21-119, limits assumed); experiment: SPR (Biacore 3000), mAb amine-coupled, His-tagged hFcRn injected, 1:1 Langmuir, pH 6.0
# T2 construct: In-house soluble His-tagged FcRn; also called monomeric human FcRn produced in-house; not shown: His tag
# T2 sequence (P55899 24-290 limits assumed, chain 1 of 2): as the sequence (P55899 24-290 limits assumed, chain 1 of 2) above
# T2 sequence (P61769 21-119 limits assumed, chain 2 of 2): as the sequence (P61769 21-119 limits assumed, chain 2 of 2) above
# [3] = target: T2, monomeric His-tagged human FcRn (hFcRn) …; experiment: SPR (Biacore 3000), mAb amine-coupled, His-tagged hFcRn injected, 1:1 Langmuir, pH 7.4
# Experimental: The coupling was performed by injecting 3 μg/ml of each protein into 10 mM sodium acetate, pH 4.5 (GE Healthcare), using the amine coupling kit (GE Healthcare). […] All SPR experiments were conducted at 25° C. with a flow rate of 40 μl/min. Binding data were zero-adjusted, and the reference cell value subtracted. The Langmuir 1:1 ligand binding model provided by the BIAevaluation software (version 4.1) was used to determine the binding kinetics. The closeness of the fit is described by the statistical value χ².
# [4] = target: human FcRn as expressed in cells (human whole blood; hFcRn transgenic mice) (human, UniProt P55899 24-365; P61769 21-119); experiment: cell-based or functional assay
# Chain of human FcRn as expressed in cells (human whole blood; hFcRn transgenic mice) (P55899 24-365, chain 1 of 2): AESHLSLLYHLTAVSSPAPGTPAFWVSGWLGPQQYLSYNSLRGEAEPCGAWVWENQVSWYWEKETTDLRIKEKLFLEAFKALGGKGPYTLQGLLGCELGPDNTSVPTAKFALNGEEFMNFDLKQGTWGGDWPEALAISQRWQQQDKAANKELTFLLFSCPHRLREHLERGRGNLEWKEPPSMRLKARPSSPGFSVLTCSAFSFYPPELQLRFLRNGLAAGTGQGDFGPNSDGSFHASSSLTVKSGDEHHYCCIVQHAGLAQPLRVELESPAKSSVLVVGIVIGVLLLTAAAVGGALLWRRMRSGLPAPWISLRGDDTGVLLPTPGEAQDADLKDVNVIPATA
# Chain of human FcRn as expressed in cells (human whole blood; hFcRn transgenic mice) (P61769 21-119, chain 2 of 2): as the sequence (P61769 21-119 limits assumed, chain 2 of 2) above
# [5] = target: T2, monomeric His-tagged human FcRn (hFcRn) …; experiment: SPR (Biacore 3000), H3Vk2 amine-coupled, hFcRn (JTA) injected, 1:1 Langmuir, pH 7.4
# Experimental: (§1) All SPR experiments were conducted at 25° C. with a flow rate of 40 μl/min. Binding data were zero-adjusted, and the reference cell value subtracted. The Langmuir 1:1 ligand binding model provided by the BIAevaluation software (version 4.1) was used to determine the binding kinetics. The closeness of the fit is described by the statistical value χ2.
# [6] = target: T3, cynomolgus FcRn (cFcRn) obtained from SINO Biological Inc (cynomolgus monkey, UniProt Q8SPV9 24-297; Q8SPW0 21-119); experiment: SPR (Biacore 3000), H3Vk2 amine-coupled, cynomolgus FcRn (SINO) injected, 1:1 Langmuir, pH 7.4
# T3 construct: also called pFcRn (SINO); pFeltn (SINO)
# T3 sequence (Q8SPV9 24-297 limits assumed, chain 1 of 2): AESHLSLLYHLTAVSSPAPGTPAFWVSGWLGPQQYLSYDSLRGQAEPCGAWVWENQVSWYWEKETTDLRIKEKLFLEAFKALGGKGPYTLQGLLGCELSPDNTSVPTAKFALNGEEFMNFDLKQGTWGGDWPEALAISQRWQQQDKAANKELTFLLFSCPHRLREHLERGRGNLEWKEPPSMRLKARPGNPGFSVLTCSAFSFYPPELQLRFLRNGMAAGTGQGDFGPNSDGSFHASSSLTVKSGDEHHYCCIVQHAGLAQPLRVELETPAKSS
# T3 sequence (Q8SPW0 21-119 limits assumed, chain 2 of 2): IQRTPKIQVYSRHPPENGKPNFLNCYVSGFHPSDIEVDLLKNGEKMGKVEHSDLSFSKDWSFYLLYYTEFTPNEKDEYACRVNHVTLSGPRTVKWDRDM
# Experimental: as §1
# [7] = target: T2, monomeric His-tagged human FcRn (hFcRn) …; experiment: SPR (Biacore 3000), mAb amine-coupled, His-tagged hFcRn (JTA) injected, 1:1 Langmuir, pH 6.0
# Experimental: In a further study, surface plasmon resonance (SPR) was conducted using a Biacore 3000 instrument (GE Healthcare) with CM5 sensor chips coupled with antibodies (˜550 resonance units (RU)) using amine-coupling chemistry as described by the manufacturer. […] All SPR experiments were conducted at 25° C. with a flow rate of 40 μl/min. Binding data were zero-adjusted, and the reference cell value subtracted. The Langmuir 1:1 ligand binding model provided by the BIAevaluation software (version 4.1) was used to determine the binding kinetics. The closeness of the fit is described by the statistical value χ2.
# [8] = target: T1, FcRn (analyte of the BIACORE studies of …); experiment: SPR (BIACORE), antibody immobilized on CM5, FcRn injected, 1:1 Langmuir, pH 6.0
# Experimental: (§2) Antibodies were diluted into 10 mM NaAc, pH 4.5, and immobilized onto BIACORE® CM5 chips to RU levels of approximately 500-1000. Analysis was performed by injection of FcRn at concentrations of 12-800 nM in 1×PBS-P at pH 7.4 or pH 6.0.
# [9] = target: T1, FcRn (analyte of the BIACORE studies of …); experiment: SPR (BIACORE), antibody immobilized on CM5, FcRn injected, 1:1 Langmuir, pH 7.4
# Experimental: as §2
# [10] = target: T1, FcRn (analyte of the BIACORE studies of …); experiment: SPR (BIACORE), antibody captured on protein A CM5 chip, FcRn analyte
# Text: Antibodies were captured on a CM5 chip coated with protein A and analyte (FcRn) flowed over the surface.
# [11] = target: T4, recombinant human FcRn (Sino Biological Inc. Cat. No. CT009-H08H) (human, UniProt P55899 24-290; P61769 21-119); experiment: scFv competition ELISA vs biotinylated parent murine antibody, captured FcRn, pH 7.4
# T4 construct: Bought protein; also called hFcRn (SINO); immobilized FcRn
# T4 sequence (P55899 24-290 limits assumed, chain 1 of 2): as the sequence (P55899 24-290 limits assumed, chain 1 of 2) above
# T4 sequence (P61769 21-119 limits assumed, chain 2 of 2): as the sequence (P61769 21-119 limits assumed, chain 2 of 2) above
# Experimental: (§3) A total of about 60 scFv antibodies from the VH CDR3 and VL CDR3 libraries were selected for further study. The scFv antibodies were prepared from bacterial periplasmic extracts, and tested by competition ELISA at pH 6.0 and pH 7.4. […] As in the ELISA used to test humanized variants, a 96 well flat bottom microtitre plate was pre-coated with 1 μg/ml of an FcRn antibody specific for an albumin-binding epitope distinct from the Fc-binding region. Binding was determined at pH 7.4 and pH 6.0.
# [12] = target: T4, recombinant human FcRn (Sino Biological …); experiment: scFv competition ELISA vs biotinylated parent murine antibody, captured FcRn, pH 6
# Experimental: as §3
binder,measurement,setting,value
B1,Kd,[1],0.39 nM and 0.4 nM
same,kon,[1],318000 M⁻¹ s⁻¹
same,Kd,[2],7.4 nM
same,kon,[2],85000 M⁻¹ s⁻¹
same,Kd,[3],4.9 nM
same,kon,[3],61000 M⁻¹ s⁻¹
B2,plasma concentration of HuLys11 (human IgG1) in hFcRn transgenic mice after 20 mg/kg,[4],3 fold
same,Kd,[5],4.6 nM
same,Kd,[6],11.9 nM
same,Kd,[7],3.8 nM
same,Kd,[2],3.8 nM
same,Kd,[3],5.1 nM
B3,Kd,[1],0.32 nM
same,koff,[1],9.28e-05 s⁻¹
same,kon,[1],289000 M⁻¹ s⁻¹
B4,Kd,[8],1.4 nM
same,koff,[8],0.000438 s⁻¹
same,kon,[8],319000 M⁻¹ s⁻¹
same,Kd,[9],18.2 nM
same,koff,[9],0.000679 s⁻¹
same,kon,[9],43800 M⁻¹ s⁻¹
B5,Kd,[8],1.3 nM
same,koff,[8],0.000298 s⁻¹
same,kon,[8],229000 M⁻¹ s⁻¹
same,Kd,[9],13.1 nM
same,koff,[9],0.000544 s⁻¹
same,kon,[9],54300 M⁻¹ s⁻¹
B6,Kd,[8],0.6 nM
same,Kd,[10],0.84 nM
B7,fold decrease in IC50 (relative to humanized parent scFV),[11],36.4 fold
same,fold decrease in IC50 (relative to humanized parent scFV),[12],17.1 fold
B8,fold decrease in IC50 (relative to humanized parent scFV),[11],7.18 fold
same,fold decrease in IC50 (relative to humanized parent scFV),[12],5.04 fold
B9,fold decrease in IC50 (relative to humanized parent scFV),[11],20 fold
same,fold decrease in IC50 (relative to humanized parent scFV),[12],17 fold
B10,fold decrease in IC50 (relative to humanized parent scFV),[11],24.4 fold
same,fold decrease in IC50 (relative to humanized parent scFV),[12],18.6 fold
B11,fold decrease in IC50 (relative to humanized parent scFV),[11],16.8 fold
same,fold decrease in IC50 (relative to humanized parent scFV),[12],3.65 fold
B12,fold decrease in IC50 (relative to humanized parent scFV),[11],37.4 fold
same,fold decrease in IC50 (relative to humanized parent scFV),[12],16.4 fold
B13,fold decrease in IC50 (relative to humanized parent scFV),[11],26.4 fold
same,fold decrease in IC50 (relative to humanized parent scFV),[12],16.4 fold
B14,fold decrease in IC50 (relative to humanized parent scFV),[11],29 fold
same,fold decrease in IC50 (relative to humanized parent scFV),[12],18.9 fold
B15,fold decrease in IC50 (relative to humanized parent scFV),[11],30.8 fold
same,fold decrease in IC50 (relative to humanized parent scFV),[12],17.7 fold
B16,fold decrease in IC50 (relative to humanized parent scFV),[11],25.3 fold
same,fold decrease in IC50 (relative to humanized parent scFV),[12],21.7 fold
B17,fold decrease in IC50 (relative to humanized parent scFV),[11],23.8 fold
same,fold decrease in IC50 (relative to humanized parent scFV),[12],14.2 fold
B18,fold decrease in IC50 (relative to humanized parent scFV),[11],9.29 fold
same,fold decrease in IC50 (relative to humanized parent scFV),[12],6.5 fold
